Laboratory results as given in the supplement of paper PMC10567573.

B1: ZNF232 (parent)
chain: FPKSEQVYLHFLSVVTEDGPEPKD
B2: PWWP2B (parent)
chain: TIRLRPRQVLCEKCKSTLSPPEAS

Variants of: B1
Test: protein stability index of a GFP-peptide fusion (GPS, HEK-293T) (PSI 1-6); higher = more stable
Conditions: c terminus: a fixed tail appended
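Note: lentivirally expressed fusions sorted by FACS into six bins by GFP to DsRed ratio, PSI derived from sequencing read proportions per bin multiplied by bin number.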

Protein stability index of substitutions, site by site:
D24: M 1.56; W 1.35; E 2.12; S 1.71; L 2.94; H 1.35; P 2.16
S13: H 1.81; E 2.98; L 1.76
K23: S 1.91; W 1.7; C 2.07; E 2.13; Y 1.39
V14: Y 3.58; E 3
P2: Q 2.14; H 1.54; D 3.92
E17: A 3.57; M 2.51; R 1.88; L 1.56; S 1.65
K3: H 2.09
S4: I 2.58; R 1.66; K 1.89; W 2.14; V 1.61; G 1.66; E 2.95
P22: W 1.83; F 1.67; N 2.37; Y 1.25; S 1.81
V15: P 2.08; F 2.44; S 2.47; R 3.32
V7: S 2.59; A 2.2; M 3.74; T 2.1; H 1.61
E5: V 2.58; C 1.65; Q 1.9; D 2.84; G 1.61; K 3.34
L9: Y 2.53; E 3.54; S 2.32; Q 2.78; F 1.73; T 2.62
D18: R 1.47; Y 1.24
P20: D 2.53; C 1.93; G 2.5; L 1.71
G19: A 2.33; I 1.9; N 2.69; T 2.34; Y 1.33; C 1.95
T16: K 2.77; N 2.42; I 2.19; D 2.26
L12: W 1.21; G 3.24; I 1.97; K 3.6; P 2.34; S 2.75
E21: L 1.91; W 1.7; F 3.2; V 2.97; A 2.71; D 2.02; T 2.06; R 1.79; P 1.91; M 2.04
H10: G 2.24
F1: L 3.95; K 4.44; D 4.86; Y 2.01; N 4.29; H 3.88
Y8: Q 3.33; A 2.46; V 1.98; N 2.01; G 2.15
Q6: H 1.88; P 1.92; L 2.18; I 2.23
F11: E 4.55; M 2.06; H 2.99; K 3.17

Variants of: B2
Test: as above
Conditions: c terminus: a fixed tail appended

Protein stability index, by site and new letter:
K15: N 3.26; F 3.01; C 2.41; V 2.71; E 3.72; D 3.58; S 2.74; M 2.79; Q 2.72; W 2.76; I 2.51; G 2.83; H 2.57; Y 2.73; R 2.59; P 4.03; L 2.76; T 3.07; A 2.71
S19: W 1.84; L 2.72; F 2.83; D 3.68; A 3.02; M 2.74; V 3.18; E 3.32; H 2.68; I 3.35; G 2.29; N 3.25; Y 2.94; C 2.99; K 2.56; P 3.16; T 2.37; R 2.59; Q 3.01
P21: E 3.63; N 2.95; T 2.69; Q 2.98; I 2.67; A 3.29; L 2.08; M 2.73; V 2.95; H 2.79; G 2.78; W 2.35; S 3.5; C 2.72; Y 2.42; K 3.21; R 2.72; D 3.89; F 2.56
P20: R 2.65; T 2.76; W 2.45; L 2.41; M 2.55; A 2.79; Q 3.03; H 2.24; N 2.63; Y 2.42; C 2.87; E 3.22; I 2.44; G 3.29; V 2.9; D 3.5; F 2.26; S 2.79; K 2.66
S24: K 2.7; F 2.36; C 2.99; M 1.97; T 3.25; D 3.44; W 1.93; V 2.62; Y 2.89; R 3.02; E 3.28; A 2.64; H 2.63; G 2.6; P 2.9; L 2.66; I 2.78; Q 3.09; N 2.98
S16: E 3.65; G 3.07; H 2.76; V 2.61; R 3.2; I 2.66; Y 2.27; M 2.94; W 1.96; K 3.09; T 2.92; N 3.34; L 2.59; P 2.73; D 2.78; C 2.98; A 3.08; Q 3.35; F 2.18
A23: R 2.73; Y 2.47; V 2.91; D 3.54; I 2.61; E 3.49; W 1.96; Q 3.94; C 3.15; L 2.47; M 3.01; N 3.12; K 3.02; H 2.83; G 2.87; T 2.99; P 3.3; S 2.75; F 2.43
E22: K 2.62; P 2.69; I 2.09; S 2.81; Y 2.31; F 2.02; A 2.66; Q 2.58; N 2.46; W 1.94; D 3.41; C 2.42; V 3.18; R 2.32; M 2.4; H 2.34; G 2.18; T 3.15; L 2.85
K13: S 3; I 2.73; W 2.49; N 2.78; Y 2.24; T 2.39; H 2.53; Q 2.83; M 2.84; G 2.6; P 3.22; L 1.81; V 2.71; R 3.37
L18: Q 3.05; C 3.15; M 3.94; N 3.63; F 2.89; V 3.18; K 3.11; I 3.03; E 3.92; G 3.7; T 3.08; S 2.87; P 3.94; W 1.96; D 3.78; Y 2.83; A 2.86; R 2.49; H 3.85
T17: Q 2.78; S 2.96; K 2.62; A 3.33; E 3.97; W 1.89; H 2.76; R 2.77; G 2.82; M 2.77; Y 2.18; F 2.56; C 2.5; L 3; D 3.19; P 3.44; I 2.88; N 2.76; V 2.48
C14: Y 3.45; K 4.05; L 3.13; I 3.64; A 3.85; H 3.52; W 2.58; T 4.22; P 4.29; R 3.32; Q 4.05; D 4.04; V 3.52; S 3.84; F 3.19; M 3.44; E 4.23; G 4.08; N 4.05
